Test [1] deals with GFP-JMY CT (aa821-983) (Mus musculus) (UniProt Q9QXM1). As to the kind of experiment: co-IP; as a9 but lysate/antibody mixture with 2 µM Ca2+; actin CoIP/GFP IP ratio as percent difference from the Ca2+-free (1 mM EGTA) condition.
For test [2], the target named is GFP-JMY WH2#1 (aa841-883) (Mus musculus) (UniProt Q9QXM1). Described as above.
For test [3], the target named is GFP-JMY CT (aa821-983) (Mus musculus) (UniProt Q9QXM1). As to the kind of experiment: co-IP; L929 lysate with GFP-JMY CT, continuous 2 µM Ca2+ for 2 h, compared with continuous EGTA; anti-GFP immunoprecipitation, quantitative immunoblot.

Data on one substance can be found in PMC12098658.

GFP-JMY CT (aa821-983) (Mus musculus), sequence (Q9QXM1 821-983): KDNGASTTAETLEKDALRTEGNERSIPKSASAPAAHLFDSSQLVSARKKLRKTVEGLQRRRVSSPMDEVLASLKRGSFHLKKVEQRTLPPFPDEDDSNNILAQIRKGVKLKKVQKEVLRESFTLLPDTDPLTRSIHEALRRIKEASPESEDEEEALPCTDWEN
GFP-JMY WH2#1 (aa841-883) (Mus musculus), sequence (Q9QXM1 841-883): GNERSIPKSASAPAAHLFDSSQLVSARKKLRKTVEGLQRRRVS

Regarding “endogenous actin from L929 cells (from UniProt P60710 1-375) (natural protein)”, the percent change of coimmunoprecipitated actin with 2 µM Ca2+ against the Ca2+-free condition in test [1] is under -80%; in test [2], under -80%; in test [3], -80%.
